Test results published in patent US20210347914A1 (BANYAN BIOMARKERS, published 2021).

B1: UCH-L1-1 (antibody, V domains shown)
VH: QVQLQQPGSELVRPGASVKLSCKASGYTFTSYWMHWVKQRPGQGLEWIGNIYPGSGSTNYDEKFKSKATLTVDTSSSTAYMQLSSLTSEDSAVYYCTREDYWGQGTTLTVSS
VL: DVLMTQTPLSLPVSLGDQASISCRSSQNIVHSNGNTYLEWYLQKPGQSPKLLIYKVSNRFSGVPDRFSGSGSGTDFTLKISRVEAEDLGVYYCFQGSHVPFTFGSGTKLEIK
notes: also called mouse anti-UCH-L1 antibody UCH-L1-1
B2: UCH-L1-2 (antibody, V domains shown)
VH: EVMLVESGGGLVKPGGSLKLSCAASGFIFSSHAMSWIRQIPEKRLEWVATISSGGSNTYYPDSVKGRFTISRDNAKNILYLQMSSLRSEDTAIYYCTRHGEVRRGYYFDYWGQGTTLTVSS
VL: DIQMTQTPSSLSASLGDRVTISCSASQGITNYLNWYQQKPDGTVKLLIYYTSSLHSGVPSRFSGSGSGTDYSLTISNLEPEDFATYYCQHYSNLPWTFGGGTKLEIK
notes: also called mouse anti-UCH-L1 antibody UCH-L1-2
B3: UCH-L1-3 (antibody, V domains shown)
VH: QVQLQQPGSELVRPGASVKLSCRASGYTFTSYWIHWVKQRHGQGLEWIGNIYPGSGITNYDEKFKTKGTLTVDTSSSTVYMHLISLTSEDSAVYYCTREDYWGQGTTLTVSS
VL: DVLMTQTPLSLPVSLGDQASISCRSSQSIVHSNGNTYLEWYLQKPGQSPKLLIYKVSNRFSGVPDRFSGSGSGTDFTLKISGVETEDLGVYYCFQGSHVPFTFGGGTKLEIK
notes: also called mouse anti-UCH-L1 antibody UCH-L1-3
B4: UCH-L1-4 (antibody, V domains shown)
VH: AVQLQQSGPELVKPGASVKISCKTSGDTFTEHFMNWVKQSHGESLEWIGIINPYTDGTNYDQKFKDKATLTVDKSSSTAYMELRSLTSEDSAVYYCARWGGDGEGYWGQGTTLTVSS
VL: DIVMTQAAPSVSVTPGESVSISCRSSKSLLHSNGNTYLYWFLKRPGQSPQLLIYRMSNLASGVPDRVSGSGSGTAFTLRISRVEAEDVGIYYCMQHLEYPLTFGAGTKLELK
notes: also called mouse anti-UCH-L1 antibody UCH-L1-4
B5: UCH-L1-5 (antibody, V domains shown)
VH: EVKLVESGGGSVQPGGSLSLSCAASGFTFTEYYMSWVRQFPGKALEWLAFIRNRAHGYTTEYSASVKGRFTISRDNSQSILYLQMNALRTEDSATYYCASSYGAPFAYWGQGTLVSVSA
VL: DIVMTQAAPSVPVTPGESVSISCRSSKSLLHSDGNTYLYWFLQRPGQSPQLLIYRMSNLASGVPDRFSGSGSGTAFTLRISRVEAEDVGVYYCMQHLEYPLTFGAGTKLELK
notes: also called mouse anti-UCH-L1 antibody UCH-L1-5; HRP-labeled anti-UCH-L1 detection antibody
B6: UCH-L1-7 (antibody, V domains shown)
VH: EVQLQQSGPELVKPGASVKISCKTSGYTFTEYTMHWVKQSHGKSLDWIGGINPNNGRTSYNQKFKGKATLTVDKSSSTAYMELRSLTSEDSAVYYCARRLGRGFYFDYWGQGTTLTVSS
VL: DIVLTQSPASLAVSLGQRATISCRASESVDSYGNNLMHWYQQKPGQPPKLLIYLSSNLESGIPARFSGRGSRTDFTLTINPVEADDVATYYCQQSNGDPYTFGGGTKLEIK
notes: also called mouse anti-UCH-L1 antibody UCH-L1-7
B7: UCH-L1-6 (antibody, V domains shown)
VH: EVQLQQSGPELVKPGASVKISCKTSGYTFTEYTMHWVKQSHGKSLDWIGGINPNNGRTSYNQKFKGKATLTVDKSSSTAYMDFRSLTSEDSAVYYCARRLGRGFYFDYWGQGTTLTVSS
VL: DIVLTQSPASLAVSLGQRATISCRASESVESYGNNLIHWYQQKLGQPPKLLIYLSSNLEPGIPARFSGRGSRTDFTLTINPVEADDVATYYCQQSNGDPYTFGGGTKLEIR
notes: also called mouse anti-UCH-L1 antibody UCH-L1-6
B8: UCH-L1-8 (antibody, V domains shown)
VH: EVQLQQSGPDLVKPGTSVKISCKTSGYTFTEYTMHWVKQSHGRSLEWIGGLNPNNGRTSYNQKFKGKATLTVDKSSSIAYMELRSLTSEDSAVYYCARRLGRGFYFDYWGQGTTLTVSS
VL: DIVLTQSPASLAVSLGQRATISCRASESVDSYGNNLMHWYQQKPGQSPKLLIYRASNLESGIPGRFSGRGSRTDFTLTINPVEADDVATYYCQQSNGDPYTFGGGTKLEIK
notes: also called mouse anti-UCH-L1 antibody UCH-L1-8
B9: UCH-L1-9 (antibody, V domains shown)
VH: EVQLQQSGPELVKPGASVKISCKTSGYTFTEYTMHWVKQSHGKSLDWIGGINPNNGRTSYNQKFKGKATLTVDKSSSTAYMELRSLTSEDSTVYYCARRLGRGFYFDYWGQGTTLTVSS
VL: DIVLTQSPASLAVSLGQRATISCRASESVDSYGNNFMHWYQQKPGQPPKLLIYLSSNLESGIPARFSGRGSRTDFTLTINPVEADDVATYYCQQSNGDPYTFGGGTKLEMK
notes: also called mouse anti-UCH-L1 antibody UCH-L1-9
B10: UCH-L1-10 (antibody, V domains shown)
VH: EVQLQQSGPDLVKPGTSVKISCKTSGYTFTEYTMHWVKQSHGRSLEWIGGFNPNNGRTSYNQKFKGKATLTVDKSSSTAYMELRSLTSEDSAVYYCSRRLYRGFYFDYWGQGTTLTVSS
VL: DIVLTQSPASLAVSLGQRATISCRASESVDSYGNNLMHWYQQKPGQSPKLLIYRASNLESGIPGRFSGRGSRTDFSLTINPVEADDVATYYCQQSNGDPYTFGGGTKLEIK
notes: also called mouse anti-UCH-L1 antibody UCH-L1-10

target: T1, Polyhistidine-tagged recombinant human UCH-L1 expressed from E. coli (human, UniProt P09936 1-223, limits assumed); assay: BLI (Octet QKe); His-tagged UCH-L1 on anti-Penta-HIS sensor, antibody in solution
T1 construct: also called UCH-L1-His; not shown: polyhistidine tag
T1 sequence (P09936 whole entry): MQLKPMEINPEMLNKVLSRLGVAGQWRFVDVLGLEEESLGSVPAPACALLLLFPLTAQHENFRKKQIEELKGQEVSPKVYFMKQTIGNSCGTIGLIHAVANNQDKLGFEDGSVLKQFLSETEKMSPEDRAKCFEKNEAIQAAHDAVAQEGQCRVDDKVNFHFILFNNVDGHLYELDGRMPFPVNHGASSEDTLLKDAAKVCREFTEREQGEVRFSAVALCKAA
Experimental: The rates of association (kₒₙ) and dissociation (koff) of the anti-UCH-L1 antibodies were determined by bio-layer interferometry using an Octet QK^e instrument according to the manufacturer's instructions (ForteBio). See Tobias et al., Biomolecular Binding Kinetic Assays in the Octet Platform, Application Note 14, ForteBio, Div. of Pall Life Sciences, 2013. Polyhistidine-tagged recombinant human UCH-L1 expressed from E. coli was used as the antigen. The antigen was bound at a concentration of […] to an anti-Penta-HIS(HIS1K) capture biosensor containing an anti-histidine antibody (ForteBio) for use with the Octet QK^e instrument.

First: B1
Second: B2
The Kd of the first is lower: < 0.001 nM for the first, 0.207 nM for the second.

Going from B3 to B4, the Kd falls from 0.367 nM to 0.0369 nM (9.9-fold). The second binds more tightly here.

Going from B5 to B6, the Kd rises from < 0.001 nM to 0.0187 nM. The first binds more tightly here.

Going from B7 to B8, the Kd rises from < 0.001 nM to 0.0474 nM. The first binds more tightly here.

Going from B9 to B10, the Kd falls from 0.0857 nM to 0.043 nM (2-fold). The second binds more tightly here.

Going from B1 to B2, the koff rises from < 1e-07 s⁻¹ to 3.01e-05 s⁻¹.

B3 and B4 are within 1.5-fold of each other in koff: 1.34e-05 s⁻¹ for the first, 1.4e-05 s⁻¹ for the second.

First: B5
Second: B6
The koff of the first is 25-fold lower: 1e-07 s⁻¹ for the first, 2.5e-06 s⁻¹ for the second.

First: B7
Second: B8
The koff of the first is 67-fold lower: 1e-07 s⁻¹ for the first, 6.7e-06 s⁻¹ for the second.

Compared with B9, B10 is 2.2-fold lower in koff: 1.01e-05 s⁻¹ for the first, 4.6e-06 s⁻¹ for the second.

First: B1
Second: B2
The kon of the first is 2.5-fold lower: 58800 M⁻¹ s⁻¹ for the first, 146000 M⁻¹ s⁻¹ for the second.

First: B3
Second: B4
The kon of the first is 10-fold lower: 36400 M⁻¹ s⁻¹ for the first, 378000 M⁻¹ s⁻¹ for the second.

First: B5
Second: B6
The kon of the first is 3.5-fold higher: 459000 M⁻¹ s⁻¹ for the first, 133000 M⁻¹ s⁻¹ for the second.

B7 and B8 are within 1.5-fold of each other in kon: 145000 M⁻¹ s⁻¹ for the first, 141000 M⁻¹ s⁻¹ for the second.

B9 and B10 are within 1.5-fold of each other in kon: 118000 M⁻¹ s⁻¹ for the first, 107000 M⁻¹ s⁻¹ for the second.
